From patent WO2018225033A1

Assays:
FcyR = experiment: cell-based or functional assay
[1] = biological target: rabbit Fc-tagged recombinant extracellular human ICOS (human) (UniProt Q9Y6W8); experiment: SPR, Biacore T200, 1:1 kinetics model, rabbit Fc-tagged extracellular human ICOS
[2] = biological target: rabbit Fc-tagged recombinant extracellular human ICOS (human) (UniProt Q9Y6W8); experiment: SPR, Biacore; reference is human ICOS-L binding to dimeric human ICOS (FIG. 15B)

UniProt Q9Y6W8, sequence (Q9Y6W8 21-140): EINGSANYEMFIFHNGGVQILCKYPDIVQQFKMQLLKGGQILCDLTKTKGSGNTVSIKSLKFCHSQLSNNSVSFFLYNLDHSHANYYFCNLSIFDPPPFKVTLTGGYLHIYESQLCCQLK

IFN-γ induction in activated human PBMC assay (FcyR): > 2 fold
IFN-γ induction in modified mixed lymphocyte reaction (FcyR): > 2 fold
Kd [1]: 1.34 nM
fold higher affinity than the ICOS-L/ICOS interaction [2]: 17 fold
B1: H2L5 IgG4PE (antibody, V domains shown)
VH: QVQLVQSGAEVKKPGSSVKVSCKASGYTFTDYAMHWVRQAPGQGLEWMGLISIYSDHTNYNQKFQGRVTITADKSTSTAYMELSSLRSEDTAVYYCGRNNYGNYGWYFDVWGQGTTVTVSS
VL: EIVLTQSPATLSLSPGERATLSCSASSSVSYMHWYQQKPGQAPRLLIYDTSKLASGIPARFSGSGSGTDYTLTISSLEPEDFAVYYCFQGSGYPYTFGQGTKLEIK
